The source of these data is the nanobody polyreactivity screen of Harvey et al. (2022).

The series is described as follows: yeast display, Sf9 membrane polyspecificity reagent, FACS + sequencing; frameworks hold sequencing errors. A digest of the protocol:
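A synthetic nanobody library was expressed on Saccharomyces cerevisiae BJ5465 by galactose induction for 36–48 hours. The library was stained for 1 hour at 4 °C with 10% biotinylated, detergent-solubilized Sf9 membrane reagent and enriched with streptavidin microbeads before FACS. Low and high (top ~1%) gates were set on anti-HA fluorescence for expression and streptavidin fluorescence for reagent binding, and each polyreactivity label reflects the gate of origin.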
Take “QVQLQERGDGLLQAVGSLRLSFAESGYISGYYYMGWYRQAPGKDRELVAGIDAFGSSTNYADCVKGRFTISRDNAKNTVYLEMNSLKPEDTAVYYCAASPDGERLFSYWGQGTQVTVSS”: the “polyreactivity (PSR sort gate)” value is “low polyreactivity”.
For “QVQLVESGGGLVQAGGSLRLSCAASGSTFYGYVMGWYRQAPGKERDFVAGITRGGSTNYADSVKGRFTISRDNAKNTVYLQMNSLKPEDTAVYYCATRYFSRYYYWGQGTQVTVSS”, the “polyreactivity (PSR sort gate)” value is reported as “high polyreactivity”.
Then “QVQLVESGGGLVQAGGSLRLSCAASGRTFWPNVMGWYRQAPGKERELVAALTWGDASTYYADSVKGRFTISRDNAKYTVYLQMNSLKPEDTAVYYCAASDYRRTYDYWGQGTQVTVSS”, with “low polyreactivity”.
Then “QVQLVESGGGLVQAGGSLRLSCAASGRTFLALGWYRPAPGKERELVAAISRTNYADSVKGRVTISRDNAKNTVYLQMHSLKPEETAVYYCAKEYYSYEGYLGLSYVRRYDYWGQGTQVTVSS”, with “low polyreactivity”; and “QVQLVESGGGLVQAGGSLRLSCAASGSIFNDNVMGWYRQAPGKERELVAGISRSGTRTYYADSVKGRFTISRDNAKNTVYLQMNSLKPEDTAVYSGAAAYGQARRYNGSQYGSWGQGTQVTVSS”, with “high polyreactivity”.
As to “QVQLVESGGGLVQAGGSLRLSCAASGFTFEKNAMGWYRQAPGKERELVAAISRGGSTYADSVKGRFTISRDNAKNTVYLQMNSLKPEDTAVYYCAGDTVYIFSSAINGEFGYWGQGTQVTVSS”, the “polyreactivity (PSR sort gate)” value is given as “low polyreactivity”.
On to “QVQLVESGGGLVQAGGSLRLSCAASGSTSSVYDMGWYRQEPGKERELVAGIDYSAGSTYYADSVKGRFTISRDNAKNTVYLQMNSLKPEDTAVYYCDADAAYYSGYDYWGQGTQVTVSS”, for which the “polyreactivity (PSR sort gate)” value was “low polyreactivity”.
Regarding “QVQLVESGGGLVQAGGSLRLSCSASGFILLAYAMGWYRQAHGKERELVAAITSGGSTHYADSVKGRFTISRDNAKNTVYLQMNSLKPEDTAVYYCANDTVFRYSGNTYGYWGQGTQVTVSS”, the “polyreactivity (PSR sort gate)” value is “low polyreactivity”.
The value for “QDQHVESGGGIVQAGGSLRLICAASGRTFANNAMGWYRQAPGKERELVAAISWSGGSTYYADSVKGRFTISRDNAKNTVYLQMNSLKPEDTAVYYCAADSPRYGGYGYWGQGTHVTVSS” was “low polyreactivity”.
Regarding “QVQLVESGGGLVQAGGSLRLSCAASGSIFRIYVMGWYRQAPGKERELVAAINSGGRTKYADSVKGRFTISRDNAKNTVYLLMNSLKPDDTAVYYCAAAFLYRKGVSSLYDSWGQGTQVTVSS”, the “polyreactivity (PSR sort gate)” value is given as “high polyreactivity”.
The value for “QVQLVESGGGLVQAGGSLRLSCAASGNIFGSYAMGWYRQAPGKERELVAAIRTSGGSTYYADSVKGRFTISRDNAKNTVYLQMNSLKPEDTAVYYCATRSRTTKIVRWPGMYYWGQGTQVTVSS” was “high polyreactivity”; that for “QVQLVESGGGLVQAGGSLRLSCAASGGTFRVYAMGWYRQAPGKERELVAAISGGGRTYADSVKGRFTISRDNAKITVYLQMNSLKPEDTAVYYCNTRRYYRVTTVKRYDYWGQGTQVTVSS” was “high polyreactivity”.
For “QVQIVESGGGLVQAGGSLRLSCAASGITFDTYVMGWYRQAPGKERELVATISESVGNTYYADSVKGRFTISRDNEKNTVYLQMNILKPEDTAVDYCYTSRYYTIYTYYYWGQGTQVTVSS”, the “polyreactivity (PSR sort gate)” value is reported as “low polyreactivity”.
Then “QVQLVESGGGLVQAGGSLRLSCAASGSIFRSYDMGMYRQAPGKERELVADITRTGGNTYYADSVKGRFTISRDNAKNTVYLQMNSLKPEDTAVYYCAATYILTVSVFSYVWPYDYWGQGTQVTVSS”, with “high polyreactivity”; and “QVQLVESGGRLVQAGGRLRLSCAASGNIFYGYAMGWYRQAPGKERELVARINWSGSRTYYADTVKGRFTISRDNAKNTVYLQMNSLNPEDTAVYYCNTSTSRVPGNGDYWGQGTQVTVSS”, with “high polyreactivity”; and “QVQLVESGGGLVQAGGSLRLSCAASGITLSVYAMGWYRQAPRKERELVASISSGGTSTYYADSVKGRFTISRDNAKNTVYLLMISLKPEDTAVYYCAAYSYYTGDQYSYDYWGQGTQVTVSS”, with “low polyreactivity”.
Take “QVQLVESGGGLVQAGGTLRLSCAASGRTIRNYARGRYRQAPVKERELVAAITWSGGSTYYADSVKGRFTISRDNAKNTVYLQMNSLKPEDTAVYYCNVRYYTRTYNYWGQGTQVTVSS”: the “polyreactivity (PSR sort gate)” value is “high polyreactivity”.
For “QVQLVESGGGLVQAGGSLRLSCAASGSIFDYNTMGWYRQAPGKVRELVAVISGTGGSTYYADSVKGRFTISRVNAKNTVYVQLNSMKPEDTAVYYCAAEGYYSNYHYWGQGTQVTVSS”, the “polyreactivity (PSR sort gate)” value is “low polyreactivity”.
Then “QVQLVESGGGLVQAGGSLRLSCAASGSIFYRNVMGWYRQAPGKERELVAAISQRGGSTYYADSVKGRFTISRDNAKNTVYLQMNSLKPEDTAVYYCIAASRGAGTSIWSWYDHWGQGTQVTVSS”, with “low polyreactivity”; and “QVLLQESGGGLVQAGGSLRLSCAASGNIFSAGGMGWYRQAPVKELELVAGIGTGTSTNYADSVKGRFTISRDNAKNTVYLQMNSLKPEDTAVYYCAADSYPAYLGFVGFDYWGQGTQVNVSS”, with “low polyreactivity”; and “QVQLVESGGGLVQAGGSLRLSCAASGRTFYYYAMGWYRQAPGKERELVASITSGDGTYYADSVKGRFTISRDNAKNTVYLQMNSLKPEDTAVYYCAADIFYKFSYYPWYPYRDYYYSGQGTQVTVSS”, with “low polyreactivity”.
In the case of “QVQLVESGGGLVQAGGILRLSCAASGSTFGRYAMGWYRQAPGKVRELVAAISRRGGSTYYADSVKGRFTISRDNAKKTVYLQMYSLKRQDTAVYYCGADDVRTTGCHFDYWGQGTEVTVSS”, the “polyreactivity (PSR sort gate)” value is “high polyreactivity”.
In the case of “QVQLVESGGGLVHAGGSLRLSCAAAGFTFTYYTMGWYRKAPGKERELVAAITENGGSTYYADSVKWRFTISRDNAKNTVYLQMKSLKPEDPAVYYCNARVWDYGGHGYDYWGQGTQVTVSS”, the “polyreactivity (PSR sort gate)” value is recorded as “low polyreactivity”.
On to “QVQLVESGGGLVQAGRSLRLSCAASGSPLYSYAMGWYRQAPGKEREFVAAITSDDGSTYYADSVKGRFTISRDNAKNTVYLPLTSLKPEDTAVYYCATAASVEYNYWGQCTQVTVSS”, for which the “polyreactivity (PSR sort gate)” value is “low polyreactivity”.
Then “QVQLVDSGGGLVQAGGSLRLSCAASGRIFRRYTMGWYRQAPGKERELVAAISSGGGTNYADSVKGRFSISRDNAKNTVYLQMNSLKPEDTAVYYCNARSWLSRGYGYWGQGTQVTVSS”, with “high polyreactivity”; and “QVQLVESGGGLVQAGGSLRLSCAASGFTIDYYTMGWYRQAPGKERELVAAISWSGGSTYYADSVKGRFTISRDNAKNTVYLQMNSLKPEDTAVYYCAAAWSYRYELYYWGQGTQVTVSS”, with “low polyreactivity”; and “QVQLVESGGGLVQAGGSLRLSCAASGSIFNYSAMGWYRQARGKERELVAGITTSGGSTYYADSVKGRFTISRDNAKNTVYLQMNSLKPEDTAVYYCAAYDYISSTYFLDDYWGQGTQVTVSS”, with “low polyreactivity”.
Regarding “QVQLVESGGGLVQAGGSLRLSCAASGYILPKNTMGWYRQAPGKERELVAAISWSGGSTFYADSVKGRFTISRDNAKHTVYLQMNSLKPEDTAVYYCAADRSWSWYYRYDYWGQGTQVTVSS”, the “polyreactivity (PSR sort gate)” value is listed as “low polyreactivity”.
The value for “QVQLVESGGGLVQAGGSLRLICAASGSIFFGNAMGWYRQAPGKERELDAAITLRGGSTYYADSVKGRFTISRDNAKNTVYLQMNSLKPEDTAVYYCNAVSKRYGYGYWGQGTQVTVSS” was “high polyreactivity”; that for “QVQLVESGGGLVQAGGSLRLSCAASGSTFKYYGMGWYRQAPGKERELVAAITSGGSTYDADSVKGRFTISRDNAKTTVYLQRNSLKPEDTAVYYCNTQYYLYYPADYDYWGQGTQVTVSS” was “low polyreactivity”.
